Assay results published in patent US20190111148A1 (MONASH UNIVERSITY, published 2019).
One block for each binder: values may come before it.

What was measured:
human IL-21 [1] = biological target: T1, human IL-21 (human, UniProt Q9HBE4 25-162, limits assumed); assay: cell-based or functional assay
Peptide 4 of hIL-21 = biological target: T2, Peptide 4 of hIL-21 (human); assay: ELISA, biotinylated 2P2 on coated peptide
T2 construct: also called P4
T2 peptide: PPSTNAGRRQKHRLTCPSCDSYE
Procedure: (§1) To detect epitopes of 2P2 and 3A3, peptides consisting of different regions of hIL-21 were synthesized commercially and coated on an ELISA plate, followed by blocking of non-specific binding sites with 3% BSA in PBS. Biotinylated 2P2 or 3A3 were then added to the wells and developed with Streptavidin-HRP and TMB substrates.

Peptide 5 of hIL-21 = biological target: T3, Peptide 5 of hIL-21 (human); assay: ELISA, biotinylated 2P2 on coated peptide
T3 construct: also called P5
T3 peptide: PPSTNAGRRQKHRLT
Procedure: as §1

mIL21 = mIL21 (mouse, UniProt Q9ES17); assay: ELISA: coated mIL21, biotinylated 2P2, Streptavidin-HRP/TMB, A450
Peptide 3 of hIL-21 = biological target: T4, Peptide 3 of hIL-21 (human); assay: ELISA: coated Peptide 3, biotinylated 2P2, Streptavidin-HRP/TMB, A450
T4 construct: also called P3
T4 peptide: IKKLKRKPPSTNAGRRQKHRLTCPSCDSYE
Procedure: as §1

Peptide 1 (P1, 30aa) = biological target: T5, Peptide 1 (P1, 30aa); assay: peptide ELISA: coated peptide, biotinylated 2P2, Streptavidin-HRP/TMB, A450
T5 construct: also called peptide 1 of hIL-21
T5 sequence (peptide, as listed by the source): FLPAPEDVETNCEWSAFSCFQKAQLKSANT
Procedure: as §1

Peptide 2 (P2) = biological target: T6, Peptide 2 (P2); assay: as above
T6 construct: also called peptide 2 of hIL-21; Peptide 2 (P2, 27aa)
T6 sequence (peptide, as listed by the source): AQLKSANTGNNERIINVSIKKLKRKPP
Procedure: as §1

human IL-21 [2] = biological target: T1, human IL-21; assay: SPR (ProtOn XPR36), biotinylated hIL21 immobilised on NLC chip, antibody in flow, triplicates
Procedure: Triplicates SPR measurements were conducted on ProtOn XPR36 (Bio-rad). NLC chips (Bio-rad) were used to immobilise biotinylated hIL21 on ligand channels, followed by flowing through of various concentrations of mouse 2P2 or humanised 2P2.

human IL-21 [3] = biological target: T1, human IL-21; assay: SPR, immobilised mAb, IL-21 in flow; average of the five wells of Table 6 (unit from Table 6); average with range and SD of the five measurements
Procedure: Surface Plasma Resonance binding kinetics assay were performed on a Bio-rad XPR36 system by the direct amine coupling method. Briefly, a flow of mixture of EDC [N-ethyl-N′-(3-diethylamino-propyl) carbodiimide] and NHS (N-hydroxysuccinimide) was used to activate the cell surface of a GLC sensor chip before 25 μg/ml anti-IL-21 mAb was flowed through, then a shot flow of ethanolamine was used to block the remaining active sites on the cell surface. Afterwards, serial diluted solutions of IL-21 from 0 to 40 nM were flown over the cell surface to bind to the immobilized anti-IL-21 mAb molecules. Binding kinetics were performed at 25° C. with a flow rate of 30 μL/min, association time of 3 min and dissociation time of 6 min. The buffer consisted of Hepes, NaCl, tween20, and 1 mg/mL BSA at pH 7.4. The flow cell regeneration buffer between cycles was 15 mM phosphoric acid. Double references were used to process the sensorgrams. The binding curves were globally fit to the 1:1 Langmuir binding model.

T1 sequence (Q9HBE4 25-162 limits assumed): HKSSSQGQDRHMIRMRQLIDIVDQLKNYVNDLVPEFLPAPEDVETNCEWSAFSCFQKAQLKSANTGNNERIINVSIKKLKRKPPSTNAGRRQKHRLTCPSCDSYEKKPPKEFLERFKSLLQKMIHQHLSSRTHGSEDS

bioactivity of human IL-21 (proliferation of Ba/F3-hIL-21 R cells, [3H]-thymidine incorporation) (human IL-21 [1]): > 10 fold
hIL-21 mediated human B cell proliferation (CFSE dilution, flow cytometry) (human IL-21 [1]): ~20 fold
hIL-21 mediated human CD8 T cell activation (granzyme B/perforin double positive cells) (human IL-21 [1]): > 10 fold
binding result (Peptide 4 of hIL-21): binds
binding result (Peptide 5 of hIL-21): binds
binding result (mIL21): no binding
binding result (Peptide 3 of hIL-21): binds
binding result (Peptide 1 (P1, 30aa)): no binding
binding result (Peptide 2 (P2)): no binding
Kd (human IL-21 [2]): 0.0201 nM
koff (human IL-21 [2]): 0.000512 s⁻¹
Kd (human IL-21 [3]): 3.33 nM
B1: monoclonal antibody 2P2 (antibody, V domains shown)
VH: EVQLQQSGADLVRSGASVKLSCTASGFNIKDYYIHWVKQRPEQGLELIGWIDPESGDTEYAPKFQVKATMTADTSSNTAYLQLSSLTSEDTAVYYCNDGSGYWGQGTTLTVSS
VL: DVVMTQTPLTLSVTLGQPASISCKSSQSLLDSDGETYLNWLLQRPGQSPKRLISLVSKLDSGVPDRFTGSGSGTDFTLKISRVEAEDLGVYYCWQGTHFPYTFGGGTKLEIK
notes: Mouse monoclonal antibody; it was detected with anti-mouse IgG in ELISA; also called mAb 2P2; m2P2

Kd (human IL-21 [2]): 0.0305 nM
koff (human IL-21 [2]): 0.00037 s⁻¹
B2: humanized 2P2 antibody (antibody, V domains shown)
VH: QVQLVQSGAEVKKPGASVKVSCKASGFNIKDYYIHWVRQAPGQGLELIGWIDPESGDTNYAQKFQVKATMTRDTSISTAYMELSRLRSDDTAVYYCNDGSGYWGQGTTVTVSS
VL: DVVMTQSPLSLPVTLGQPASISCKSSQSLLDSDGETYLNWLQQRPGQSPRRLISLVSKLDSGVPDRFSGSGSGTDFTLKISRVEAEDVGVYYCWQGTHFPYTFGQGTKLEIK
notes: it was detected with anti-human IgG in ELISA; also called h2P2; humanised 2P2
